In the data set the target is FaoA-GUS fusion protein (UniProt P05804).
Chain of UniProt P05804 (P05804 whole entry, looked up, the tested form may be a part): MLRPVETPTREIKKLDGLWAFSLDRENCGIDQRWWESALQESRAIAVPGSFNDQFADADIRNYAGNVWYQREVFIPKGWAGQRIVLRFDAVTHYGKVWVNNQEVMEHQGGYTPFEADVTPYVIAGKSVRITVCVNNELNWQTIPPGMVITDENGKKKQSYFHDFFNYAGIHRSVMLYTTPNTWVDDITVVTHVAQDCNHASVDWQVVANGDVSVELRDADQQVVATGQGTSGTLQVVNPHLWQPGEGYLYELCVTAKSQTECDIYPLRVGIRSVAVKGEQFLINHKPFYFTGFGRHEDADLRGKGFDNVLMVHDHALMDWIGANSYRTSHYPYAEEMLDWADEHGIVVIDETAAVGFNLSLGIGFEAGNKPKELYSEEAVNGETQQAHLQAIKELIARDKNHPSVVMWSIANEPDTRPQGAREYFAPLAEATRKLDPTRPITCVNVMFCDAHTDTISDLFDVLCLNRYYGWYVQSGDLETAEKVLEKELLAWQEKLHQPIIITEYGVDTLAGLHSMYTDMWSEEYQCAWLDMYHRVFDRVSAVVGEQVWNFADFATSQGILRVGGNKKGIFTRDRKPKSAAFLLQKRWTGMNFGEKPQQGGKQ

The substance “FaoB polypeptide of the Pseudomonas putida FaoAB fatty acid oxidation multienzyme complex” gave a GUS activity (pmol MU/min), OS fraction of flax zygotic embryos, pmfG138:pmf224 (1:1) of 386 pmol MU/min; a GUS activity (pmol MU/min), OS fraction of flax zygotic embryos, pmfG138:pmf224 (1:3) of 440 pmol MU/min; a GUS activity (pmol MU/min), SN fraction of flax zygotic embryos, pmfG138:pmf224 (1:1) of 175 pmol MU/min; a GUS activity (pmol MU/min), SN fraction of flax zygotic embryos, pmfG138:pmf224 (1:3) of 214 pmol MU/min. The GUS activity (pmol MU/min), total homogenate of B. napus microspore embryos co-bombarded with pmfG138:pmf224 came to 85 pmol MU/min; the GUS activity in a GUS-FaoA fusion, transient expression in embryos was above 2 fold; the GUS specific activity, Ara-FaoA-GUS:pha-FaoB against Ara-FaoA-GUS, background subtracted, B. napus microspore embryos is 2 fold; the Specific activity (activity/mg prt), OS fraction of flax zygotic embryos, pmfG138:pmf224 (1:1) (activity/mg prt) was 52.8. Further, the Specific activity (activity/mg prt), OS fraction of flax zygotic embryos, pmfG138:pmf224 (1:3) (activity/mg prt) amounted to 79; the Specific activity (activity/mg prt), SN fraction of flax zygotic embryos, pmfG138:pmf224 (1:1) (activity/mg prt) amounted to 23.9; the Specific activity (activity/mg prt), SN fraction of flax zygotic embryos, pmfG138:pmf224 (1:3) (activity/mg prt) was 38.4; the Specific activity (activity/mg prt), total homogenate of B. napus microspore embryos co-bombarded with pmfG138:pmf224 (activity/mg prt) stood at 29.1.

The values are drawn from patent publication US6586658.
